Reference: patent US20090022738A1 (MICROMET, published 2009)

Experiments:
[1] = target: T1, human CD3 (human, UniProt P07766 23-207; P04234 22-171; P09693 23-182); assay: FACS, 10 µg/ml on Jurkat cells
T1 construct: whole, on cells; also called CD3 antigen; human CD3 complex
Description: (§1) Binding of the bispecific single chain molecules with anti-CD3 part in N-terminal orientation to EpCAM and CD3 were confirmed by FACS analyses. For that purpose the EpCAM positive human gastric cancer cell line Kato III (ATCC HTB-103) was used.
(§2) Cells were cultured according to the recommendations of the supplier and a number of 200000 cells was incubated with 10 μg/ml of the construct in 50 μl PBS with 2% FCS (fetal calf serum). The binding of the construct was detected with an anti-His antibody (Penta-His Antibody, obtained from Qiagen, Hilden, FRG) at 2 μg/ml in PBS with 2% FCS. […] The samples were measured on a FACSscan (BD biosciences, Heidelberg, FRG).

[2] = target: T2, Epithelial cell adhesion molecule (EpCAM) (human, UniProt P16422 24-314); assay: FACS, 10 µg/ml on EpCAM positive Kato III cells
T2 construct: whole, on cells; also called 17-1A antigen; KSA
T2 sequence (looked up): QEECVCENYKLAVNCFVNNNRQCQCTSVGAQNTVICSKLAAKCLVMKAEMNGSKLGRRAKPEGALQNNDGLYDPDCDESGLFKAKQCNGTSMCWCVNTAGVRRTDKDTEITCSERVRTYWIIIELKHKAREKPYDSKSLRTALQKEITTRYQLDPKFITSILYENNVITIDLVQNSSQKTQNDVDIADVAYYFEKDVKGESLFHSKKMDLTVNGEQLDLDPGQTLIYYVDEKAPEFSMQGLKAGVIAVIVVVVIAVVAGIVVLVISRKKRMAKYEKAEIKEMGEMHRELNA
Description: as §1, §2

[3] = target: T1, human CD3; assay: FACS on CD3-enriched PBMCs
[4] = target: T1, human CD3; assay: FACS, second experiment, crude supernatant on CD3-enriched PBMCs
Description: (§3) In order to analyze the binding efficacy of the deimmunized constructs to CD3 and CD19 a FACS-based assay was performed. Initially, crude supernatants were tested for binding on CD3-enriched PBMCs or CD19-positive NALM-6 cells. Cells were incubated with non-diluted supernatants for 30 minutes at 8° C. Upon two wash steps the cells were labeled with an anti-His antibody (Qiagen) under the same conditions. After additional wash steps binding of the constructs was detected with a FITC-conjugated sheep anti-mouse antibody (Sigma). Cells were analyzed with a FACS Calibur cytometer (B&D). As controls supernatants of anti-CD19×anti-CD3 and GFP-transfected cells were included. […] The positive control, which was a non-deimmunized anti-CD19×anti-CD3 construct reached a MFI of around 60 showing that the deimmunized constructs comprising anti-CD3 (VH5/VL1) (SEQ ID NO.:190), anti-CD3 (VH5/VL2) (SEQ ID NO.:192), anti-CD3 (VH5/VL3) (SEQ ID NO.:194), anti-CD3 (VH7/VL1) (SEQ ID NO.:196), anti-CD3 (VH7/VL2) (SEQ ID NO.:198) and anti-CD3 (VH7/VL3) (SEQ ID NO.:200) bound CD3 with extremely high efficacy.

[5] = target: T3, CD19 (human, UniProt P15391 20-556); assay: FACS, crude supernatant on CD19-positive NALM-6 cells; negative control MFI ca. 3
T3 construct: whole, on cells; also called CD19 on NALM-6 cells
T3 sequence (looked up): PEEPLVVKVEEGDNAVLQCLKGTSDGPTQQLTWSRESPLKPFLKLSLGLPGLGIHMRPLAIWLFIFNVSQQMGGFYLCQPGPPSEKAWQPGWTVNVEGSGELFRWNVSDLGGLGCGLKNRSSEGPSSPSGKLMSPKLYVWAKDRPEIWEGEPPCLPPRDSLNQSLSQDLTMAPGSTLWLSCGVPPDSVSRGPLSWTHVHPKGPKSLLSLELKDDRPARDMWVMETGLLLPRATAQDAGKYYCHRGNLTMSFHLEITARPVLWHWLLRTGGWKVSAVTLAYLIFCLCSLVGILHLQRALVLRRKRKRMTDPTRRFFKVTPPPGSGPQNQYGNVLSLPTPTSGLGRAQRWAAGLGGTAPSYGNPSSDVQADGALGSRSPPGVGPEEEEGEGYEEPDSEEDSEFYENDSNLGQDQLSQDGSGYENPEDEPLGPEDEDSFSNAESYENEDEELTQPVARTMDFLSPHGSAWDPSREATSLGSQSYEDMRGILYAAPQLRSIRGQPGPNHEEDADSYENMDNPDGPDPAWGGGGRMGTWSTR
Description: as §3
The FACS-based binding assay was also carried out for CD19. In this experiment CD19 and a secondary antibody was as a negative control. In this experiment, all assayed constructs achieved a MFI of at least 80 while the MFI of the negative control was ca. 3.

B1: deimmunized anti-CD3 (VH5/VL2)×5-10 (VL-VH) (SEQ ID NO.:39) (bispecific antibody)
chain: DVQLVQSGAEVKKPGASVKVSCKASGYTFTRYTMHWVRQAPGQGLEWIGYINPSRGYTNYADSVKGRFTITTDKSTSTAYMELSSLRSEDTATYYCARYYDDHYCLDYWGQGTTVTVSSGEGTSTGSGGSGGSGGADDIVLTQSPATLSLSPGERATLSCRASQSVSYMNWYQQKPGKAPKRWIYDTSKVASGVPARFSGSGSGTDYSLTINSLEAEDAATYYCQQWSSNPLTFGGGTKVEIKSGGGGSELVMTQSPSSLTVTAGEKVTMSCKSSQSLLNSGNQKNYLTWYQQKPGQPPKLLIYWASTRESGVPDRFTGSGSGTDFTLTISSVQAEDLAVYYCQNDYSYPLTFGAGTKLEIKGGGGSGGGGSGGGGSEVQLLEQSGAELVRPGTSVKISCKASGYAFTNYWLGWVKQRPGHGLEWIGDIFPGSGNIHYNEKFKGKATLTADKSSSTAYMQLSSLTFEDSAVYFCARLRNWDEPMDYWGQGTTVTVSS
notes: Bispecific single chain, VH(CD3)-VL(CD3)-VL(EpCAM)-VH(EpCAM); detected by anti-His; also called anti-CD3 (VH5/VL2)x5-10 (VL-VH)
binding result [1]: binds
binding result [2]: binds

B2: deimmunized anti-CD3 (VH5/VL2)×4-7 (VL-VH) (SEQ ID NO.:35) (bispecific antibody)
chain: DVQLVQSGAEVKKPGASVKVSCKASGYTFTRYTMHWVRQAPGQGLEWIGYINPSRGYTNYADSVKGRFTITTDKSTSTAYMELSSLRSEDTATYYCARYYDDHYCLDYWGQGTTVTVSSGEGTSTGSGGSGGSGGADDIVLTQSPATLSLSPGERATLSCRASQSVSYMNWYQQKPGKAPKRWIYDTSKVASGVPARFSGSGSGTDYSLTINSLEAEDAATYYCQQWSSNPLTFGGGTKVEIKSGGGGSELVMTQTPLSLPVSLGDQASISCRSSQSLVHSNGNTYLHWYLQKPGQSPKLLIYKVSNRFSGVPDRFSGSGSGTDFTLKISRVEAEDLGVYFCSQSTHVPYTFGGGTKLEIKGGGGSGGGGSGGGGSEVQLLEQSGAELARPGASVKLSCKASGYTFTNYGLSWVKQRPGQVLEWIGEVYPRIGNAYYNEKFKGKATLTADKSSSTASMELRSLTSEDSAVYFCARRGSYDTNYDWYFDVWGQGTTVTVSS
notes: Bispecific single chain, VH(CD3)-VL(CD3)-VL(EpCAM)-VH(EpCAM); detected by anti-His; also called anti-CD3 (VH5/VL2)x4-7 (VL-VH)
binding result [1]: binds
binding result [2]: binds

B3: deimmunized anti-CD3 (VH5/VL2)×5-10 (SEQ ID NO.:37) (bispecific antibody)
chain: DVQLVQSGAEVKKPGASVKVSCKASGYTFTRYTMHWVRQAPGQGLEWIGYINPSRGYTNYADSVKGRFTITTDKSTSTAYMELSSLRSEDTATYYCARYYDDHYCLDYWGQGTTVTVSSGEGTSTGSGGSGGSGGADDIVLTQSPATLSLSPGERATLSCRASQSVSYMNWYQQKPGKAPKRWIYDTSKVASGVPARFSGSGSGTDYSLTINSLEAEDAATYYCQQWSSNPLTFGGGTKVEIKSGGGGSEVQLLEQSGAELVRPGTSVKISCKASGYAFTNYWLGWVKQRPGHGLEWIGDIFPGSGNIHYNEKFKGKATLTADKSSSTAYMQLSSLTFEDSAVYFCARLRNWDEPMDYWGQGTTVTVSSGGGGSGGGGSGGGGSELVMTQSPSSLTVTAGEKVTMSCKSSQSLLNSGNQKNYLTWYQQKPGQPPKLLIYWASTRESGVPDRFTGSGSGTDFTLTISSVQAEDLAVYYCQNDYSYPLTFGAGTKLEIK
notes: Bispecific single chain, VH(CD3)-VL(CD3)-VH(EpCAM)-VL(EpCAM); expressed in CHO with a leader peptide; detected by anti-His
binding result [1]: binds
binding result [2]: binds

B4: anti-CD19×anti-CD3 (VH3/VL1) (SEQ ID NO.:184) (bispecific antibody)
chain: DIQLTQSPASLAVSLGQRATISCKASQSVDYDGDSYLNWYQQIPGQPPKLLIYDASNLVSGIPPRFSGSGSGTDFTLNIHPVEKVDAATYHCQQSTEDPWTFGGGTKLEIKGGGGSGGGGSGGGGSQVQLQQSGAELVRPGSSVKISCKASGYAFSSYWMNWVKQRPGQGLEWIGQIWPGDGDTNYNGKFKGKATLTADESSSTAYMQLSSLASEDSAVYFCARRETTTVGRYYYAMDYWGQGTTVTVSSGGGGSDVQLVQSGAEVKKPGASVKVSCKASGYTATRYTMHWVRQAPGQGLEWIGYINPSRGYTNYAQKLQGRVTMTTDTSTSTAYLQMNSLKTEDTAVYYCARYYDDHYCLDYWGQGTTVTVSSGEGTSTGSGGSGGSGGADDIQMTQSPSSLSASVGDRVTITCRASQSVSYMNWYQQKPGKAPKRWIYDTSKVASGVPARFSGSGSGTDYSLTINSLEAEDAATYYCQQWSSNPLTFGGGTKVEIK
notes: As m4: bispecific single chain, His-tagged; also called pEF anti-CD19×anti-CD3 (VH3/VL1)
binding result [3]: no binding (tested: non-diluted supernatant)
MFI [4]: ~6 MFI
MFI [5]: ≥ 80 MFI

B5: deimmunized anti-CD3 (VH5/VL2)×4-7 (SEQ ID NO.:33) (bispecific antibody)
chain: DVQLVQSGAEVKKPGASVKVSCKASGYTFTRYTMHWVRQAPGQGLEWIGYINPSRGYTNYADSVKGRFTITTDKSTSTAYMELSSLRSEDTATYYCARYYDDHYCLDYWGQGTTVTVSSGEGTSTGSGGSGGSGGADDIVLTQSPATLSLSPGERATLSCRASQSVSYMNWYQQKPGKAPKRWIYDTSKVASGVPARFSGSGSGTDYSLTINSLEAEDAATYYCQQWSSNPLTFGGGTKVEIKSGGGGSEVQLLEQSGAELARPGASVKLSCKASGYTFTNYGLSWVKQRPGQVLEWIGEVYPRIGNAYYNEKFKGKATLTADKSSSTASMELRSLTSEDSAVYFCARRGSYDTNYDWYFDVWGQGTTVTVSSGGGGSGGGGSGGGGSELVMTQTPLSLPVSLGDQASISCRSSQSLVHSNGNTYLHWYLQKPGQSPKLLIYKVSNRFSGVPDRFSGSGSGTDFTLKISRVEAEDLGVYFCSQSTHVPYTFGGGTKLEIK
notes: Bispecific single chain, VH(CD3)-VL(CD3)-VH(EpCAM)-VL(EpCAM); detected by anti-His; also called anti-CD3 (VH5/VL2)x4-7
binding result [1]: binds
binding result [2]: binds

B6: deimmunized anti-CD3 (VH5/VL2)×3-1 (SEQ ID NO.:31) (bispecific antibody)
chain: DVQLVQSGAEVKKPGASVKVSCKASGYTFTRYTMHWVRQAPGQGLEWIGYINPSRGYTNYADSVKGRFTITTDKSTSTAYMELSSLRSEDTATYYCARYYDDHYCLDYWGQGTTVTVSSGEGTSTGSGGSGGSGGADDIVLTQSPATLSLSPGERATLSCRASQSVSYMNWYQQKPGKAPKRWIYDTSKVASGVPARFSGSGSGTDYSLTINSLEAEDAATYYCQQWSSNPLTFGGGTKVEIKSGGGGSEVQLLEQSGAELVKPGASVKISCKASGYAFTNYWLGWVKQRPGHGLEWIGDLFPGSGNTHYNERFRGKATLTADKSSSTAFMQLSSLTSEDSAVYFCARLRNWDEAMDYWGQGTTVTVSSGGGGSGGGGSGGGGSELVMTQSPSYLAASPGETITINCRASKSISKYLAWYQEKPGKTNKLLIYSGSTLQSGIPSRFSGSGSGTDFTLTISSLEPEDFAMYYCQQHNEYPYTFGGGTKLEIK
notes: Bispecific single chain, VH(CD3)-VL(CD3)-VH(EpCAM)-VL(EpCAM); detected by anti-His
binding result [1]: binds
binding result [2]: binds
